Experimental data published in the supplement of paper PMC10567573.

B1: VPS39 (parent)
chain: ITEEKVCMVCKKKIGNSAFARYPN

Variants of: B1
Assay: protein stability index of a GFP-peptide fusion (GPS, HEK-293T) (PSI 1-6); higher = more stable
Conditions: c terminus: a fixed tail appended
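Note: lentivirally expressed fusions sorted by FACS into six bins by GFP to DsRed ratio, PSI derived from sequencing read proportions per bin multiplied by bin number.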

Q: Which protein stability index does the source give for ITEEKVWMVCKKKIGNSAFARYPN here?
A: 2.02

Q: With ITEEKVGMVCKKKIGNSAFARYPN as the variant, how does the protein stability index read?
A: 2.46

Q: For ITEEKVMMVCKKKIGNSAFARYPN, which protein stability index is on record?
A: 2.79

Q: Which protein stability index does the source give for ITEEKVFMVCKKKIGNSAFARYPN here?
A: 2.78

Q: With ITEEKVPMVCKKKIGNSAFARYPN as the variant, how does the protein stability index read?
A: 3.64

Q: Which protein stability index does the source give for ITEEKVQMVCKKKIGNSAFARYPN here?
A: 3.31

Q: With ITEEKVHMVCKKKIGNSAFARYPN as the variant, how does the protein stability index read?
A: 3.47

Q: Which protein stability index does the source give for ITEEKVTMVCKKKIGNSAFARYPN here?
A: 3.18

Q: With ITEEKVEMVCKKKIGNSAFARYPN as the variant, how does the protein stability index read?
A: 4.24

Q: For ITEEKVRMVCKKKIGNSAFARYPN, which protein stability index is on record?
A: 2.54

Q: Which protein stability index does the source give for ITEEKVSMVCKKKIGNSAFARYPN here?
A: 2.98

Q: Which protein stability index does the source give for ITEEKVYMVCKKKIGNSAFARYPN here?
A: 2.53

Q: Which protein stability index does the source give for ITEEKVDMVCKKKIGNSAFARYPN here?
A: 4.19

Q: For ITEEKVKMVCKKKIGNSAFARYPN, which protein stability index is on record?
A: 3.1

Q: Which protein stability index does the source give for ITEEKVNMVCKKKIGNSAFARYPN here?
A: 4.1

Q: For ITEEKVAMVCKKKIGNSAFARYPN, which protein stability index is on record?
A: 2.81

Q: With ITEEKVVMVCKKKIGNSAFARYPN as the variant, how does the protein stability index read?
A: 3.31

Q: For ITEEKVLMVCKKKIGNSAFARYPN, which protein stability index is on record?
A: 2.77

Q: Which protein stability index does the source give for ITEEKVIMVCKKKIGNSAFARYPN here?
A: 2.2

Q: Which protein stability index does the source give for ITEHKVCMVCKKKIGNSAFARYPN here?
A: 1.82

Q: With ITERKVCMVCKKKIGNSAFARYPN as the variant, how does the protein stability index read?
A: 2.15

Q: For ITEIKVCMVCKKKIGNSAFARYPN, which protein stability index is on record?
A: 2.06

Q: With ITECKVCMVCKKKIGNSAFARYPN as the variant, how does the protein stability index read?
A: 1.57

Q: With ITEGKVCMVCKKKIGNSAFARYPN as the variant, how does the protein stability index read?
A: 1.5

Q: For ITEAKVCMVCKKKIGNSAFARYPN, which protein stability index is on record?
A: 1.47

Q: Which protein stability index does the source give for ITEQKVCMVCKKKIGNSAFARYPN here?
A: 2.38

Q: For ITEMKVCMVCKKKIGNSAFARYPN, which protein stability index is on record?
A: 2.57

Q: With ITETKVCMVCKKKIGNSAFARYPN as the variant, how does the protein stability index read?
A: 1.83

Q: For ITEPKVCMVCKKKIGNSAFARYPN, which protein stability index is on record?
A: 2.39

Q: Which protein stability index does the source give for ITELKVCMVCKKKIGNSAFARYPN here?
A: 2.09

Q: Which protein stability index does the source give for ITEDKVCMVCKKKIGNSAFARYPN here?
A: 2.94

Q: With ITEKKVCMVCKKKIGNSAFARYPN as the variant, how does the protein stability index read?
A: 1.86

Q: Which protein stability index does the source give for ITESKVCMVCKKKIGNSAFARYPN here?
A: 1.74

Q: With ITEVKVCMVCKKKIGNSAFARYPN as the variant, how does the protein stability index read?
A: 1.91

Q: For ITEYKVCMVCKKKIGNSAFARYPN, which protein stability index is on record?
A: 2.15

Q: With ITENKVCMVCKKKIGNSAFARYPN as the variant, how does the protein stability index read?
A: 2.12

Q: With ITEFKVCMVCKKKIGNSAFARYPN as the variant, how does the protein stability index read?
A: 1.77

Q: With ITEECVCMVCKKKIGNSAFARYPN as the variant, how does the protein stability index read?
A: 2.04

Q: Which protein stability index does the source give for ITEEFVCMVCKKKIGNSAFARYPN here?
A: 2.21

Q: Which protein stability index does the source give for ITEEVVCMVCKKKIGNSAFARYPN here?
A: 1.98

Q: For ITEENVCMVCKKKIGNSAFARYPN, which protein stability index is on record?
A: 3.66

Q: Which protein stability index does the source give for ITEEWVCMVCKKKIGNSAFARYPN here?
A: 2.28

Q: Which protein stability index does the source give for ITEEDVCMVCKKKIGNSAFARYPN here?
A: 2.65

Q: For ITEEIVCMVCKKKIGNSAFARYPN, which protein stability index is on record?
A: 1.78

Q: Which protein stability index does the source give for ITEEHVCMVCKKKIGNSAFARYPN here?
A: 2.17

Q: Which protein stability index does the source give for ITEEMVCMVCKKKIGNSAFARYPN here?
A: 2.23

Q: With ITEEYVCMVCKKKIGNSAFARYPN as the variant, how does the protein stability index read?
A: 1.55

Q: For ITEETVCMVCKKKIGNSAFARYPN, which protein stability index is on record?
A: 2.09

Q: Which protein stability index does the source give for ITEESVCMVCKKKIGNSAFARYPN here?
A: 2.53

Q: Which protein stability index does the source give for ITEEQVCMVCKKKIGNSAFARYPN here?
A: 2.42

Q: For ITEELVCMVCKKKIGNSAFARYPN, which protein stability index is on record?
A: 2.06

Q: With ITEERVCMVCKKKIGNSAFARYPN as the variant, how does the protein stability index read?
A: 1.65

Q: Which protein stability index does the source give for ITEEAVCMVCKKKIGNSAFARYPN here?
A: 2.63

Q: With ITEEEVCMVCKKKIGNSAFARYPN as the variant, how does the protein stability index read?
A: 2.62

Q: For ITEEPVCMVCKKKIGNSAFARYPN, which protein stability index is on record?
A: 2.87

Q: With ITEEGVCMVCKKKIGNSAFARYPN as the variant, how does the protein stability index read?
A: 2.33

Q: With ITYEKVCMVCKKKIGNSAFARYPN as the variant, how does the protein stability index read?
A: 2.03

Q: Which protein stability index does the source give for ITEEKQCMVCKKKIGNSAFARYPN here?
A: 2.48

Q: For ITEEKKCMVCKKKIGNSAFARYPN, which protein stability index is on record?
A: 2.95

Q: With ITEEKWCMVCKKKIGNSAFARYPN as the variant, how does the protein stability index read?
A: 1.62

Q: Which protein stability index does the source give for ITEEKCCMVCKKKIGNSAFARYPN here?
A: 1.95

Q: With ITEEKFCMVCKKKIGNSAFARYPN as the variant, how does the protein stability index read?
A: 2.39

Q: With ITEEKTCMVCKKKIGNSAFARYPN as the variant, how does the protein stability index read?
A: 2.3

Q: Which protein stability index does the source give for ITEEKECMVCKKKIGNSAFARYPN here?
A: 2.8

Q: For ITEEKMCMVCKKKIGNSAFARYPN, which protein stability index is on record?
A: 2.81

Q: With ITEEKACMVCKKKIGNSAFARYPN as the variant, how does the protein stability index read?
A: 1.83

Q: For ITEEKYCMVCKKKIGNSAFARYPN, which protein stability index is on record?
A: 2.52

Q: With ITEEKPCMVCKKKIGNSAFARYPN as the variant, how does the protein stability index read?
A: 2.88

Q: For ITEEKLCMVCKKKIGNSAFARYPN, which protein stability index is on record?
A: 2.21

Q: With ITEEKSCMVCKKKIGNSAFARYPN as the variant, how does the protein stability index read?
A: 3.06

Q: With ITEEKNCMVCKKKIGNSAFARYPN as the variant, how does the protein stability index read?
A: 3.42

Q: For ITEEKHCMVCKKKIGNSAFARYPN, which protein stability index is on record?
A: 2.65

Q: For ITEEKGCMVCKKKIGNSAFARYPN, which protein stability index is on record?
A: 1.38

Q: With ITEEKRCMVCKKKIGNSAFARYPN as the variant, how does the protein stability index read?
A: 2.44

Q: Which protein stability index does the source give for ITEEKICMVCKKKIGNSAFARYPN here?
A: 3.18

Q: Which protein stability index does the source give for ITEEKDCMVCKKKIGNSAFARYPN here?
A: 3.48

Q: For ITEEKVCFVCKKKIGNSAFARYPN, which protein stability index is on record?
A: 3.02

Q: Which protein stability index does the source give for ITEEKVCGVCKKKIGNSAFARYPN here?
A: 2.64

Q: Which protein stability index does the source give for ITEEKVCSVCKKKIGNSAFARYPN here?
A: 3.29

Q: With ITEEKVCIVCKKKIGNSAFARYPN as the variant, how does the protein stability index read?
A: 2.6

Q: Which protein stability index does the source give for ITEEKVCKVCKKKIGNSAFARYPN here?
A: 3.11

Q: For ITEEKVCWVCKKKIGNSAFARYPN, which protein stability index is on record?
A: 1.51

Q: With ITEEKVCDVCKKKIGNSAFARYPN as the variant, how does the protein stability index read?
A: 2.95

Q: Which protein stability index does the source give for ITEEKVCQVCKKKIGNSAFARYPN here?
A: 3.22

Q: For ITEEKVCLVCKKKIGNSAFARYPN, which protein stability index is on record?
A: 2.65

Q: With ITEEKVCPVCKKKIGNSAFARYPN as the variant, how does the protein stability index read?
A: 2.64

Q: With ITEEKVCRVCKKKIGNSAFARYPN as the variant, how does the protein stability index read?
A: 2.39

Q: For ITEEKVCNVCKKKIGNSAFARYPN, which protein stability index is on record?
A: 2.92

Q: With ITEEKVCTVCKKKIGNSAFARYPN as the variant, how does the protein stability index read?
A: 2.43

Q: With ITEEKVCEVCKKKIGNSAFARYPN as the variant, how does the protein stability index read?
A: 2.85

Q: For ITEEKVCVVCKKKIGNSAFARYPN, which protein stability index is on record?
A: 3.23

Q: For ITEEKVCHVCKKKIGNSAFARYPN, which protein stability index is on record?
A: 2.31

Q: For ITEEKVCAVCKKKIGNSAFARYPN, which protein stability index is on record?
A: 2.91

Q: With ITEEKVCCVCKKKIGNSAFARYPN as the variant, how does the protein stability index read?
A: 2.44
